Consider 13 molecules from US20240317858A1 (Adimab, published 2024).

Substitutions are numbered along the chain they refer to.

B1: Antibody No. A003 (ADI-26913) Fab (Fab, V domains shown)
VH: QVQLVQSGAEVKKPGASVKVSCKASGFNIKDYYMHWVRQAPGQRLEWMGWIDLENANTIYDAKFQGRVTITRDTSASTAYMELSSLRSEDTAVYYCARDQYGRYFYDVWGQGTLVTVSS
VL: DIVMTQSPDSLAVSLGERATINCKSSQSLLNARTGKNYLAWYQQKPGQPPKLLIYWASTRESGVPDRFSGSGSGTDFTLTISSLQAEDVAVYYCKQSYSRRTFGGGTKVEIK
notes: Fab by papain digestion of the IgG1
B2: Antibody No. A004 (ADI-26920) Fab (Fab, V domains shown)
VH: B1 VH with A97G, Q100A
VL: B1 VL with R100L
notes: as for B1
B3: Antibody No. V017 (ADI-76360) Fab (Fab, V domains shown)
VH: B1 VH with N57D, A97G, Q100A
VL: B1 VL with R100L
notes: as for B1
B4: Antibody No. V019 (ADI-76362) Fab (Fab, V domains shown)
VH: B1 VH with N55E, A56G, N57D, Q100A
VL: B1 VL with R100L
notes: as for B1
B5: Antibody No. A003 (ADI-26913) IgG1 (antibody, V domains shown)
VH: B1 VH
VL: B1 VL
notes: IgG1, CHO-produced
B6: Antibody No. V016 (ADI-76359) IgG1 (antibody, V domains shown)
VH: B1 VH with N28D, A97G, Q100A
VL: B1 VL with R100L
notes: IgG1, CHO-produced
B7: Antibody No. A004 (ADI-26920) IgG1 (antibody, V domains shown)
VH: B1 VH with A97G, Q100A
VL: B1 VL with R100L
notes: IgG1, CHO-produced
B8: Antibody No. V018 (ADI-76361) IgG1 (antibody, V domains shown)
VH: B1 VH with N28D, N55E, A56G, Q100A
VL: B1 VL with R100L
notes: IgG1, CHO-produced
B9: Antibody No. V015 (ADI-76358) IgG1 (antibody, V domains shown)
VH: B1 VH with N57D
VL: B1 VL
notes: IgG1, CHO-produced
B10: Antibody No. V019 (ADI-76362) IgG1 (antibody, V domains shown)
VH: B1 VH with N55E, A56G, N57D, Q100A
VL: B1 VL with R100L
notes: IgG1, CHO-produced
B11: Antibody No. V017 (ADI-76360) IgG1 (antibody, V domains shown)
VH: B1 VH with N57D, A97G, Q100A
VL: B1 VL with R100L
notes: IgG1, CHO-produced
B12: Antibody No. V014 (ADI-76357) IgG1 (antibody, V domains shown)
VH: B1 VH with N28D
VL: B1 VL
notes: IgG1, CHO-produced
B13: Antibody No. A005 (ADI-26921) IgG1 (antibody, V domains shown)
VH: B1 VH with N55E, A56G, Q100A
VL: B1 VL with R100L
notes: IgG1, CHO-produced

T2 sequence (P07766 22-126, stated change not applied, form in doubt, chain 1 of 2): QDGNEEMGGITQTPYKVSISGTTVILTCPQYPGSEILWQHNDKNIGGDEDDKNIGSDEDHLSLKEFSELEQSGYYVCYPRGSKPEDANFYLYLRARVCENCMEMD
T2 sequence (P04234 22-100, stated change not applied, form in doubt, chain 2 of 2): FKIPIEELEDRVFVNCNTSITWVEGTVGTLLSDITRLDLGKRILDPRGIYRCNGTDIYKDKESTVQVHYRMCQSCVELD

The target of one test is T1, Cynomolgus CD3εδ Fc heterodimer (Cy CD3ε Fc + CD3δ Fc-HIS) (cynomolgus, UniProt Q95LI5 22-117; Q95LI8 22-100).
T1 construct: range 22-117;range 22-100; Made in HEK 293 cells with a heterologous signal peptide; also called Cy CD3εδ-Fc; cyno CD3εδ Fc; not shown: Fc; Fc followed by HIS tag
T1 sequence (Q95LI5 22-117, stated change not applied, form in doubt, chain 1 of 2): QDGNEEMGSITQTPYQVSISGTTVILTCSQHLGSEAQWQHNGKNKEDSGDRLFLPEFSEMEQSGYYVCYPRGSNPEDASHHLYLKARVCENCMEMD
T1 sequence (Q95LI8 22-100, stated change not applied, form in doubt, chain 2 of 2): as the sequence (P04234 22-100, stated change not applied, form in doubt, chain 2 of 2) above, with I5V, N15K, I20V, S32T, D33N, I34N, T64A, S74N counted along it
Nature of the test: SPR (Biacore), Fab over immobilized CD3εδ Fc, pH 7.4. As to the method: (§1) Anti-CD3 antibodies A001-A005, V002, V004, V007, V009, V010, V013, and V014-V019 were produced in CHO cells, and Fab fragments were generated from IgG1 antibodies by papain digestion and purification as described in Example 2. Monovalent binding affinity at pH 7.4 and pH 6.0 was measured via surface plasmon resonance (SPR). Briefly, human or cynomolgus CD3εδ Fe heterodimer produced as described in Example 2 was immobilized to a CM5 sensor chip in a Biacore® X100 (Cytiva, previously GE Healthcare Life Sciences) to a response level of ˜500 RUs. Fabs were then injected at 3-fold increasing concentrations, ranging from 0.74-180 nM. The sensor chip was doubly regenerated between cycles using 0.35 M EDTA and 0.1 M NaOH. The resulting data were double reference subtracted and fit to a 1:1 binding model using Biacore® Evaluation Software.
For orientation: SPR reads the build-up and loss of mass on a sensor chip optically.
For orientation: Kd means the free concentration of one partner at which half of the binding sites on the other are occupied at equilibrium, for simple one-to-one binding. For the molecule B1, the Kd is 9.3 nM.
Same read-out and setting: in the case of B2 it was 9 nM; in that of B3, 16 nM.

The next test concerns the target T2, Human CD3εδ Fc heterodimer (Hu CD3ε Fc + CD3δ Fc-HIS) (human, UniProt P07766 22-126; P04234 22-100).
T2 construct: range 22-126;range 22-100; Made in HEK 293 cells with a heterologous signal peptide; also called Hu CD3εδ-Fc; CD3εδ Fc-HIS heterodimer; not shown: Fc; Fc followed by HIS tag
The description is as above. As to the method:
as §1
For the molecule B1, the Kd stood at 9.9 nM.
For the molecule B2, the equilibrium dissociation constant (Kd) turned out to be 10 nM.
Same read-out and setting: in the case of B3 it was 19 nM.

The next test addresses T1, Cynomolgus CD3εδ Fc heterodimer (Cy …). As to the kind of experiment: BLI (Octet), Fab monovalent, pH 7.4. How it is done:
(§2) ForteBio KD measurements (Biolayer interferometry; BLI). ForteBio affinity measurements were performed generally as previously described (Estep, P., et al., High throughput solution-based measurement of antibody-antigen affinity and epitope binning. MAbs, 2013. 5(2): p. 270-8.). Briefly, ForteBio affinity measurements were performed by loading IgGs or CD3εδ Fe-HIS heterodimer onto AHC sensors. Sensors were equilibrated off-line in assay buffer for 30 min and then monitored on-line for 60 seconds for baseline establishment. Sensors with loaded IgGs were exposed to 100 nM antigen (e.g., CD3) for 3 min, afterwards they were transferred to assay buffer for 10 min for off-rate measurement. Sensors loaded with CD3εδ Fe-HIS heterodimer were exposed to 100 nM anti-CD3 Fab for 3 min, afterwards they were transferred to assay buffer for 3 min or 10 min for off-rate measurement. Kinetics were analyzed using the 1:1 binding model. For measuring binding at different pHs, measurements were performed at pre-determined pHs (e.g., pH 7.4 and pH 6.0).
(§3) Anti-CD3 antibodies A001-A005, V002, V004, V007, V009, V010, V013, and V014-V019 were produced as IgG1s in CHO cells, and Fab fragments were generated from IgG1 antibodies by papain digestion and purification as described in Example 2. Human, cynomolgus, rhesus, and mouse CD3εδ Fc heterodimers were produced, and monovalent binding affinity and avidity at pH 7.4 and pH 6.0 were measured using the Octet® HTX instrument (ForteBio) as described in Example 2.
With B1, the equilibrium dissociation constant (Kd) amounted to 28 nM.
Still for that read-out and setting: for B4 the value was 34 nM; for B2, 50 nM.
In the case of B3, the Kd was 96 nM.

For a further test, the target named is T2, Human CD3εδ Fc heterodimer (Hu CD3ε Fc …). As to the kind of experiment: BLI (Octet), Fab monovalent, pH 7.4. How it is done:
as §2, §3
On the technique in general: Biolayer interferometry detects binding as a change in optical thickness at a sensor tip.
For B1, the Kd came out at 35 nM.
The same measure, in the same setting: in the case of B4 it was 64 nM; in that of B2, 42 nM.
Consider B3, for which the dissociation constant (Kd) was determined as 420 nM.

A further test concerns the target T3, Rhesus CD3εδ Fc heterodimer (rhesus).
T3 construct: extracellular domain; also called Rh CD3εδ-Fc
As to the kind of experiment: BLI (Octet), Fab monovalent, pH 7.4. How it is done:
as §2, §3
Regarding B1, the equilibrium dissociation constant (Kd) is 33 nM.
On to B4, for which the equilibrium dissociation constant (Kd) was determined as 79 nM.
Molecule B2 returned a Kd of 51 nM.

The target of another test is T1, Cynomolgus CD3εδ Fc heterodimer (Cy …). As to the kind of experiment: SPR (Biacore), Fab over immobilized CD3εδ Fc, pH 6.0. As to the method: as §1
Consider B1, for which the Kd amounted to 11 nM.
On the same count and under the same terms, for B4 the value was 29 nM.
On to B2, for which the dissociation constant (Kd) stood at 15 nM.
On to B3, for which the dissociation constant (Kd) came to 26 nM.

The target in the next test is T2, Human CD3εδ Fc heterodimer (Hu CD3ε Fc …). The test is described as above. As to the method: as §1
On to B1, for which the dissociation constant (Kd) came to 11 nM.
Turning to B4, the Kd turned out to be 33 nM.
As to B2, the Kd was 16 nM.
Regarding B3, the Kd turned out to be 25 nM.

The next test deals with T4, Cynomolgus CD3 on HSC-F cells (cynomolgus, UniProt Q95LI5 22-198).
T4 construct: whole, on cells; Target is the endogenous CD3 complex on cells; also called Cyno CD3 HSC-F cells; Cyno CD3+ HSC-F cells
T4 sequence (Q95LI5 22-198): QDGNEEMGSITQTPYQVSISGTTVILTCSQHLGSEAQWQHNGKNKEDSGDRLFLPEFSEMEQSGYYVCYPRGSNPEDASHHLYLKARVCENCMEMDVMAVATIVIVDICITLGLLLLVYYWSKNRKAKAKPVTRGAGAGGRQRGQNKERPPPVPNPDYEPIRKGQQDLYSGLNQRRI
As to the kind of experiment: flow cytometry, 100 nM IgG1, pH 7.4. How it is done:
(§4) Cell binding assays. CD3+ human Jurkat cells (ATCC) and CHO-S cells (Invitrogen/ThermoFisher) were thawed and washed with cold PBSF buffer, pH 7.4 (PBS+0.1% BSA, pH 7.4). About 200,000 cells were aliquoted per well of a 96-well plate (FACS Assay Plate VWR BD 353263) and pelleted by centrifugation (5 minutes at 500×g). The cells were washed with either PBSF pH 7.4 or PBSF pH 6.0 (PBS+0.1% BSA, pH 6.0), and then resuspended in 100 μl in either PBSF pH 7.4 or PBSF pH 6.0 with IgG1 antibody (100 nM) produced in yeast as described above or in CHO cells. The mixture (cells+antibody) was incubated for 20 minutes on ice, then washed twice with either PBSF pH 7.4 or PBSF pH 6.0. Cells were resuspended in 50 μl of propidium iodide (Roche; 1:500 dilution) and anti-human IgG-RPE (Southern Biotech; 1:100 dilution) prepared in either PBSF pH 7.4 or PBSF pH 6.0, then incubated for 20 minutes on ice in the dark before cells were washed twice with either PBSF pH 7.4 or PBSF pH 6.0. Binding was analyzed on FACS Canto II.
(§5) Anti-CD3 antibodies A001-A005, V002, V004, V007, V009, V010, V013, and V014-V019 were produced as IgG1s in CHO cells, and binding to human CD3+ Jurkat cells and cynomolgus CD3+ HSC-F cells at pH 7.4 was analyzed by flow cytometry as described in Example 2. NCB (Normalized Cell Binding) values were calculated based on control and sample MFI values as NCB={(Sample MFI)−(Secondary only MFI)}/(Secondary only MFI).
On the technique in general: In flow cytometry, cells or beads pass a laser one at a time.
With B5, the “NCB (Normalized Cell Binding)” value is 367.
As for B6, the “NCB (Normalized Cell Binding)” value was 374.
As for B7, the “NCB (Normalized Cell Binding)” value was found to be 348.
B8: the “NCB (Normalized Cell Binding)” value was 378.
Consider B9, for which the “NCB (Normalized Cell Binding)” value came out at 369.
Regarding B10, the “NCB (Normalized Cell Binding)” value worked out at 373.
For B11, the “NCB (Normalized Cell Binding)” value was found to be 376.
Take B12: the “NCB (Normalized Cell Binding)” value came out at 377.
As for B13, the “NCB (Normalized Cell Binding)” value worked out at 364.

The target of another test is T5, Human CD3 on CD3+ Jurkat cells (human, UniProt P07766 23-207).
T5 construct: whole, on cells; Target is the endogenous CD3 complex on cells; also called Human CD3+ Jurkat cells
T5 sequence (P07766 23-207): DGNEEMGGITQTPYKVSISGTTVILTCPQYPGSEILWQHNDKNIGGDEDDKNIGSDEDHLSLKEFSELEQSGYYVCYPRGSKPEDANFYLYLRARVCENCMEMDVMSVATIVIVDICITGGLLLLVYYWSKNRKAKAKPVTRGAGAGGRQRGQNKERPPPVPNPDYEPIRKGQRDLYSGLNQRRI
As to the kind of experiment: flow cytometry, 100 nM IgG1, pH 7.4. How it is done:
as §4, §5
Consider B5, for which the “NCB (Normalized Cell Binding)” value turned out to be 209.
B6: the “NCB (Normalized Cell Binding)” value amounted to 314.
As to B7, the “NCB (Normalized Cell Binding)” value amounted to 240.
The same measure, in the same setting: in the case of B8 it was 223.
Same read-out and setting: for B9 the value was 334; for B10, 328.
Still for that read-out and setting: in the case of B11 it was 325; in that of B12, 349.
For the molecule B13, the “NCB (Normalized Cell Binding)” value turned out to be 206.

For another test, the target named is T1, Cynomolgus CD3εδ Fc heterodimer (Cy …). As to the kind of experiment: BLI (Octet), Fab monovalent, pH 6.0. As to the method:
as §2, §3
As to B1, the Kd was 32 nM.
Same read-out and setting: for B4 the value was 21 nM.
With B2, the Kd was 23 nM.
On the same count and under the same terms, in the case of B3 it was 34 nM.

The target of the next test is T2, Human CD3εδ Fc heterodimer (Hu CD3ε Fc …). As to the kind of experiment: BLI (Octet), Fab monovalent, pH 6.0. How it is done: as §2, §3
As to B1, the Kd came out at 29 nM.
Take B4: the Kd worked out at 36 nM.
On the same count and under the same terms, in the case of B2 it was 29 nM; in that of B3, 58 nM.
